Measured values published in patent publication US20170369576A1 (UBI US, published 2017).

Tests used:
[1] = biological target: T1, human CD4, membrane-bound on cells (HPB-ALL cells, blood/PBMC CD4+ T cells, assay target cells) (human, UniProt P01730 26-458); assay: cell-based or functional assay
[2] = biological target: T1, human CD4, membrane-bound on cells …; assay: cell-based or functional assay; remark: listed apart in the source
[3] = biological target: T1, human CD4, membrane-bound on cells …; assay: cell-based or functional assay; remark: listed apart in the source
[4] = biological target: T1, human CD4, membrane-bound on cells …; assay: competition FACS on HPB-ALL cells; reference dB4
[5] = biological target: T2, recombinant soluble CD4 (UniProt P01730 26-390, limits assumed); assay: competition ELISA on coated sCD4/p2704a mixture; reference dB4
T2 construct: also called sCD4; rsCD4

[6] = biological target: T1, human CD4, membrane-bound on cells …; assay: competition FACS on HPB-ALL cells; inhibition of dB4-Alexa (250 ng/mL)
Protocol: On V-bottomed microplates, aliquots of 2×10⁵ cells in 0.1 mL per well were added, centrifuged, and liquid discarded. […] The cells were washed once and the liquid discarded after centrifugation. To each well, aliquots of 200 μL of binding buffer were added and transferred to microdilution tubes for flow cytometric analysis. The binding intensity (mean fluorescence intensity, MFI), based on an inlet of 5,000 cells per sample, was read on FACS.

[7] = biological target: T2, recombinant soluble CD4; assay: competition ELISA on coated sCD4/p2704a mixture; inhibition of B4-biotin (10 µg/mL)

B1: murine monoclonal antibody B4 (mAb B4) (antibody, V domains shown)
VH: QVQLQQSGPELVKPGASVRMSCKASGYTFTDYVIHWVKQRTGQGLEWIGEIYPGSGSAYSNAKFKDKATLTADKSSNTAYMQLSSLTSEDSAVYFCARRGNGTGFAYWGQGTLVTVSA
VL: DIVLTQSPASLAVSLGQRATISCKAGQSVDYDGDSYMNWYQQKPGQPPKLLIYVASNLESGIPARFSGSGSGTDFTLNIHPVEEEDAATYYCQQSYKDPLTFGAGTKLELK
modifications: N-glycosylated at Asn101 in the Fv
Which “IC50 of entry inhibition, second cluster, panel of over 850 Env pseudotype viruses” value [1] does the source give for B1 here?
Its value is ~10 µg/mL.

What about the “IC50 entry inhibition, PhenoSense, control virus 92HT594” value [2] of the same binder?
The value was 0.021 µg/mL.

What about the “IC50 entry inhibition, PhenoSense, control virus JRCSF” value [2] of the same binder?
The value was 0.034 µg/mL.

What about the “IC50 entry inhibition, PhenoSense, control virus JRFL” value [2] of the same binder?
The value was 0.074 µg/mL.

And the “IC50 entry inhibition, PhenoSense, isolate 92/RW/008 (clade A)” value [2]?
Its value is 0.026 µg/mL.

What about the “IC50 entry inhibition, PhenoSense, isolate 92/RW/024 (clade A)” value [2] of the same binder?
The value was 0.055 µg/mL.

What about the “IC50 entry inhibition, PhenoSense, isolate 92/TH/005 (clade EA)” value [2] of the same binder?
Its value is 0.012 µg/mL.

What about the “IC50 entry inhibition, PhenoSense, isolate 92/TH/006 (clade EA)” value [2] of the same binder?
Its value is 0.022 µg/mL.

What about the “IC50 entry inhibition, PhenoSense, isolate 92/TH/007 (clade EA)” value [2] of the same binder?
Its value is 0.013 µg/mL.

And the “IC50 entry inhibition, PhenoSense, isolate 92/TH/009 (clade EA)” value [2]?
Its value is 0.021 µg/mL.

What about the “IC50 entry inhibition, PhenoSense, isolate 92/TH/019 (clade EA)” value [2] of the same binder?
The value was 0.022 µg/mL.

What about the “IC50 entry inhibition, PhenoSense, isolate 92/TH/020 (clade EA)” value [2] of the same binder?
The value was 0.015 µg/mL.

What about the “IC50 entry inhibition, PhenoSense, isolate 92/TH/021 (clade EA)” value [2] of the same binder?
The value was 0.017 µg/mL.

And the “IC50 entry inhibition, PhenoSense, isolate 92/TH/022 (clade EA)” value [2]?
The value was 0.012 µg/mL.

And the “IC50 entry inhibition, PhenoSense, isolate 92/TH/024 (clade EA)” value [2]?
The value was 0.01 µg/mL.

And the “IC50 entry inhibition, PhenoSense, isolate 92/UG/001 (clade D)” value [2]?
Its value is 0.018 µg/mL.

And the “IC50 entry inhibition, PhenoSense, isolate 92/UG/005 (clade D)” value [2]?
Its value is 0.019 µg/mL.

What about the “IC50 entry inhibition, PhenoSense, isolate 92/UG/021 (clade D)” value [2] of the same binder?
Its value is 0.017 µg/mL.

And the “IC50 entry inhibition, PhenoSense, isolate 92/UG/024 (clade D)” value [2]?
The value was 0.04 µg/mL.

And the “IC50 entry inhibition, PhenoSense, isolate 92/UG/035 (clade D)” value [2]?
Its value is 0.011 µg/mL.

What about the “IC50 entry inhibition, PhenoSense, isolate 92/UG/038 (clade D)” value [2] of the same binder?
Its value is 0.014 µg/mL.

What about the “IC50 entry inhibition, PhenoSense, isolate 92/UG/046 (clade D)” value [2] of the same binder?
Its value is 0.015 µg/mL.

What about the “IC50 entry inhibition, PhenoSense, isolate 93/BR/019 (clade BF)” value [2] of the same binder?
The value was 0.013 µg/mL.

What about the “IC50 entry inhibition, PhenoSense, isolate 93/BR/020 (clade F)” value [2] of the same binder?
The value was 0.024 µg/mL.

And the “IC50 entry inhibition, PhenoSense, isolate 93/IN/101 (clade C)” value [2]?
The value was 0.016 µg/mL.

And the “IC50 entry inhibition, PhenoSense, isolate 93/RW/029 (clade A)” value [2]?
Its value is 0.019 µg/mL.

And the “IC50 entry inhibition, PhenoSense, isolate 93/TH/057 (clade E)” value [2]?
Its value is 0.023 µg/mL.

And the “IC50 entry inhibition, PhenoSense, isolate 93/TH/305 (clade E)” value [2]?
The value was 0.021 µg/mL.

And the “IC50 entry inhibition, PhenoSense, isolate 93/UG/053 (clade D)” value [2]?
The value was 0.02 µg/mL.

What about the “IC50 entry inhibition, PhenoSense, isolate 93/UG/065 (clade D)” value [2] of the same binder?
Its value is 0.015 µg/mL.

And the “IC50 entry inhibition, PhenoSense, isolate 93/UG/067 (clade D)” value [2]?
The value was 0.016 µg/mL.

And the “IC50 entry inhibition, PhenoSense, isolate 93/UG/070 (clade D)” value [2]?
Its value is 0.011 µg/mL.

What about the “IC50 entry inhibition, PhenoSense, isolate 93/UG/077 (clade A)” value [2] of the same binder?
Its value is 0.012 µg/mL.

What about the “IC50 entry inhibition, PhenoSense, isolate 93/UG/082 (clade D)” value [2] of the same binder?
The value was 0.016 µg/mL.

And the “IC50 entry inhibition, PhenoSense, isolate 93/UG/086 (clade D)” value [2]?
The value was 0.015 µg/mL.

What about the “IC50 entry inhibition, PhenoSense, isolate 94/UG/103 (clade A)” value [2] of the same binder?
The value was 0.021 µg/mL.

And the “IC50 entry inhibition, PhenoSense, isolate 94/UG/105 (clade D)” value [2]?
The value was 0.021 µg/mL.

And the “IC50 entry inhibition, PhenoSense, isolate 94/UG/114 (clade D)” value [2]?
The value was 0.015 µg/mL.

And the “IC50 entry inhibition, PhenoSense, isolate 94/UG/117 (clade D)” value [2]?
Its value is 0.017 µg/mL.

And the “IC50 entry inhibition, PhenoSense, isolate 94/UG/118 (clade D)” value [2]?
Its value is 0.02 µg/mL.

What about the “IC50 entry inhibition, PhenoSense, isolate 10215-6 (clade C)” value [2] of the same binder?
The value was 0.018 µg/mL.

And the “IC50 entry inhibition, PhenoSense, isolate 10362 (clade C)” value [2]?
The value was 0.02 µg/mL.

What about the “IC50 entry inhibition, PhenoSense, isolate 11657-3 (clade C)” value [2] of the same binder?
Its value is 0.025 µg/mL.

What about the “IC50 entry inhibition, PhenoSense, isolate 20635-4 (clade C)” value [2] of the same binder?
Its value is 0.02 µg/mL.

And the “IC50 entry inhibition, PhenoSense, isolate 21068 (clade C)” value [2]?
Its value is 0.011 µg/mL.

What about the “IC50 entry inhibition, PhenoSense, isolate CA1 (clade A)” value [2] of the same binder?
Its value is 0.011 µg/mL.

And the “IC50 entry inhibition, PhenoSense, isolate CA2 (clade A)” value [2]?
Its value is 0.018 µg/mL.

And the “IC50 entry inhibition, PhenoSense, isolate CA3 (clade A)” value [2]?
The value was 0.019 µg/mL.

What about the “IC50 entry inhibition, PhenoSense, isolate CC1 (clade C)” value [2] of the same binder?
Its value is 0.016 µg/mL.

And the “IC50 entry inhibition, PhenoSense, isolate CC2 (clade C)” value [2]?
Its value is 0.021 µg/mL.

And the “IC50 entry inhibition, PhenoSense, isolate CC3 (clade C)” value [2]?
Its value is 0.012 µg/mL.

And the “IC50 entry inhibition, PhenoSense, isolate CC4 (clade C)” value [2]?
The value was 0.013 µg/mL.

And the “IC50 entry inhibition, PhenoSense, isolate CC5 (clade C)” value [2]?
Its value is 0.019 µg/mL.

What about the “IC50 entry inhibition, PhenoSense, isolate CC6 (clade C)” value [2] of the same binder?
Its value is 0.018 µg/mL.

What about the “IC50 entry inhibition, PhenoSense, isolate CC7 (clade C)” value [2] of the same binder?
The value was 0.013 µg/mL.

What about the “IC50 entry inhibition, PhenoSense, isolate CC8 (clade C)” value [2] of the same binder?
Its value is 0.019 µg/mL.

And the “IC50 entry inhibition, PhenoSense, isolate CC9 (clade C)” value [2]?
Its value is 0.02 µg/mL.

And the “IC50 entry inhibition, PhenoSense, isolate CC10 (clade C)” value [2]?
Its value is 0.015 µg/mL.

What about the “IC50 entry inhibition, PhenoSense, isolate CD1 (clade D)” value [2] of the same binder?
Its value is 0.016 µg/mL.

And the “IC50 entry inhibition, PhenoSense, isolate CF2 (clade F)” value [2]?
Its value is 0.016 µg/mL.

And the “IC50 entry inhibition, PhenoSense, isolate CF3 (clade F)” value [2]?
The value was 0.024 µg/mL.

What about the “IC50 entry inhibition, PhenoSense, isolate CF4 (clade F)” value [2] of the same binder?
The value was 0.019 µg/mL.

What about the “IC50 entry inhibition, PhenoSense, isolate CF5 (clade F)” value [2] of the same binder?
Its value is 0.018 µg/mL.

And the “IC50 entry inhibition, PhenoSense, isolate CF6 (clade F)” value [2]?
The value was 0.018 µg/mL.

What about the “IC50 entry inhibition, PhenoSense, isolate CF7 (clade F)” value [2] of the same binder?
The value was 0.019 µg/mL.

And the “IC50 entry inhibition, PhenoSense, isolate CF8 (clade F)” value [2]?
Its value is 0.017 µg/mL.

And the “IC50 entry inhibition, PhenoSense, isolate CG1 (clade G)” value [2]?
Its value is 0.018 µg/mL.

And the “IC50 entry inhibition, PhenoSense, isolate CG2 (clade G)” value [2]?
Its value is 0.027 µg/mL.

What about the “IC50 entry inhibition, PhenoSense, isolate CG3 (clade G)” value [2] of the same binder?
Its value is 0.016 µg/mL.

What about the “IC50 entry inhibition, PhenoSense, isolate CG4 (clade G)” value [2] of the same binder?
The value was 0.013 µg/mL.

What about the “IC50 entry inhibition, PhenoSense, isolate CJ1 (clade J)” value [2] of the same binder?
Its value is 0.018 µg/mL.

What about the “IC50 entry inhibition, PhenoSense, isolate CJ2 (clade J)” value [2] of the same binder?
The value was 0.019 µg/mL.

What about the “IC50 entry inhibition, PhenoSense, isolate CMU02 (clade EA)” value [2] of the same binder?
The value was 0.011 µg/mL.

And the “IC50 entry inhibition, PhenoSense, isolate CMU06 (clade E)” value [2]?
The value was 0.026 µg/mL.

And the “IC50 entry inhibition, PhenoSense, isolate MW/93/959 (clade C)” value [2]?
Its value is 0.019 µg/mL.

What about the “IC50 entry inhibition, PhenoSense, isolate MW/93/960 (clade C)” value [2] of the same binder?
The value was 0.01 µg/mL.

What about the “IC50 entry inhibition, PhenoSense, isolate QZ4589 (clade E?)” value [2] of the same binder?
The value was 0.036 µg/mL.

And the “average IC50 entry inhibition, PhenoSense, all viruses of Table 3” value [2]?
The value was 0.018 µg/mL.

And the “IC50 of HIV entry inhibition, pseudotype virus 92TH594 (R5/X4), U87-CD4+/CCR5+/CXCR4+ cells” value [3]?
Its value is 0.05 µg/mL.

And the “IC50 of HIV entry inhibition, pseudotype virus HXB2 (X4), U87-CD4+/CCR5+/CXCR4+ cells” value [3]?
Its value is 0.4 µg/mL.

What about the “IC50 of HIV entry inhibition, pseudotype virus JRCSF (R5), U87-CD4+/CCR5+/CXCR4+ cells” value [3] of the same binder?
Its value is 0.04 µg/mL.

What about the “IC50 ratio of B4 to dB4” value [4] of the same binder?
Its value is 0.69 ratio.

What about the “IC50 ratio of B4 to dB4” value [5] of the same binder?
The value was 0.68 ratio.

What about the IC50 [6] of the same binder?
Its IC50 is 0.135 µg/mL.

And the IC50 [7]?
Its IC50 is 5.54 µg/mL.
